From patent publication US20240301049A1 (Ablynx, published 2024)

Columns and labels:
Experiment in all cases: cell-based or functional assay
human IL-6 = human IL-6 (human, UniProt P05231 30-212)
cyno IL-6 = biological target: T1, cyno IL-6 (cynomolgus monkey, UniProt P79341 28-212, limits assumed)
T1 sequence (looked up): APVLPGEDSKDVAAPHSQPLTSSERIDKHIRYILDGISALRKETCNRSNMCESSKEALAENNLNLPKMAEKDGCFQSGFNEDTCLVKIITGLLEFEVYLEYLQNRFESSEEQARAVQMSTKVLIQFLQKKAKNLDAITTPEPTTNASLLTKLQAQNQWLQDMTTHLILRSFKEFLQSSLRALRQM

human TNF-α = human TNF-α (human, UniProt P01375 77-233)
Sequence of human TNF-α (P01375 77-233 limits assumed): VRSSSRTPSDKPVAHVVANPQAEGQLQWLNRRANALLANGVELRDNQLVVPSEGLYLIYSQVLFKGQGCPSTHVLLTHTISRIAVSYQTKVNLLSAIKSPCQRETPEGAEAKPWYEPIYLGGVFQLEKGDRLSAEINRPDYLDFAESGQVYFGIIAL

cyno TNF-α = cyno TNF-α (cynomolgus monkey, UniProt P79337 77-233)
Sequence of cyno TNF-α (P79337 77-233 limits assumed): as the sequence (P01375 77-233 limits assumed) above, with L37V, R44T, T72N, R138L counted along it

B1: F027201026 (bispecific antibody)
chain: EVQLVESGGGVVQPGGSLRLSCTASGFTFSTADMGWFRQAPGKGREFVARISGIDGTTYYDEPVKGRFTISRDNSKNTVYLQMNSLRPEDTALYYCRSPRYADQWSAYDYWGQGTLVKVSSGGGGSGGGSEVQLVESGGGVVQPGGSLRLSCAASGFTFRSFGMSWVRQAPGKGPEWVSSISGSGSDTLYADSVKGRFTISRDNSKNTLYLQMNSLRPEDTALYYCTIGGSLSRSSQGTLVTVSSGGGGSGGGSDVQLVESGGGVVQPGGSLRLSCAASGRTFSNYAMAWFRQAPGKEREFVAVISYAGGRTYYADSVKGRFTISRDNAKNTVYLQMNSLRPEDTALYYCAAVDSPLIATHPRGYDYWGQGTLVTVSSGGGGSGGGSEVQLVESGGGVVQPGGSLRLSCAASGIIFSINAMGWYRQAPGKQRELVADIFPFGSTEYADSVKGRFTISRDNAKNTVYLQMNSLRPEDTALYYCHSYDPRGDDYWGQGTLVTVSS
Human IL-6
  IC50 hIL-6 TF1 proliferation assay: 303 pM
Cyno IL-6
  Ratio IC50 cyno IL-6/hIL-6: 1.2 ratio
Human TNF-α
  IC50 hTNF-α Nfkb assay: 85.2 pM
Cyno TNF-α
  Ratio IC50 cyno TNFα/hTNFα: 2.2 ratio

B2: F027200153 (bispecific antibody)
chain: EVQLVESGGGVVQPGGSLRLSCTASGFTFSTADMGWFRQAPGKGREFVARISGIDGTTYYDEPVKGRFTISRDNSKNTVYLQMNSLRPEDTALYYCRSPRYADQWSAYDYWGQGTLVKVSSGGGGSGGGSEVQLVESGGGVVQPGGSLRLSCAASGFTFRSFGMSWVRQAPGKGPEWVSSISGSGSDTLYADSVKGRFTISRDNSKNTLYLQMNSLRPEDTALYYCTIGGSLSRSSQGTLVTVSSGGGGSGGGSEVQLVESGGGVVQPGGSLRLSCAASGIIFSINAMGWYRQAPGKQRELVADIFPFGSTEYADSVKGRFTISRDNAKNTVYLQMNSLRPEDTALYYCHSYDPRGDDYWGQGTLVTVSSGGGGSGGGSEVQLVESGGGVVQPGGSLRLSCAASGRTFSSYVMGWFRQAPGKEREFVSTINWAGSRGYYADSVKGRFTISRDNAKNTVYLQMNSLRPEDTALYYCAASAGGFLVPRVGQGYDYWGQGTLVTVSS
Human IL-6
  IC50 hIL-6 TF1 proliferation assay: 1030 pM
Cyno IL-6
  Ratio IC50 cyno IL-6/hIL-6: 2.5 ratio
Human TNF-α
  IC50 hTNF-α Nfkb assay: 139 pM
Cyno TNF-α
  Ratio IC50 cyno TNFα/hTNFα: 2.7 ratio

B3: F027200987 (bispecific antibody)
chain: EVQLVESGGGVVQPGGSLRLSCAASGFSLDYYGVGWFRQAPGKEREGVSCISSSEGDTYYADSVKGRFTISRDNAKNTVYLQMNSLRPEDTALYYCATDLSDYGVCSRWPSPYDYWGQGTLVKVSSGGGGSGGGSEVQLVESGGGVVQPGGSLRLSCAASGFTFRSFGMSWVRQAPGKGPEWVSSISGSGSDTLYADSVKGRFTISRDNSKNTLYLQMNSLRPEDTALYYCTIGGSLSRSSQGTLVTVSSGGGGSGGGSEVQLVESGGGVVQPGGSLRLSCAASGFTLAYYAIGWFRQAPGKEREGVSCISGSVGTTYYADSVKGRFTISRDNAKNTVYLQMNSLRPEDTALYYCVRSSWFDCGVQGRDLGNEYDYRGQGTLVTVSSGGGGSGGGSEVQLVESGGGVVQPGGSLRLSCTASGFTFSTADMGWFRQAPGKGREFVARISGIDGTTYYDEPVKGRFTISRDNSKNTVYLQMNSLRPEDTALYYCRSPRYADQWSAYDYWGQGTLVKVSS
Human IL-6
  IC50 hIL-6 TF1 proliferation assay: 143 pM
Cyno IL-6
  Ratio IC50 cyno IL-6/hIL-6: 29.4 ratio

B4: F027200167 (bispecific antibody)
chain: EVQLVESGGGVVQPGGSLRLSCAASGIIFSINAMGWYRQAPGKQRELVADIFPFGSTEYADSVKGRFTISRDNAKNTVYLQMNSLRPEDTALYYCHSYDPRGDDYWGQGTLVTVSSGGGGSGGGSEVQLVESGGGVVQPGGSLRLSCAASGRTFSSYVMGWFRQAPGKEREFVSTINWAGSRGYYADSVKGRFTISRDNAKNTVYLQMNSLRPEDTALYYCAASAGGFLVPRVGQGYDYWGQGTLVTVSSGGGGSGGGSEVQLVESGGGVVQPGGSLRLSCAASGFTFRSFGMSWVRQAPGKGPEWVSSISGSGSDTLYADSVKGRFTISRDNSKNTLYLQMNSLRPEDTALYYCTIGGSLSRSSQGTLVTVSSGGGGSGGGSEVQLVESGGGVVQPGGSLRLSCTASGFTFSTADMGWFRQAPGKGREFVARISGIDGTTYYDEPVKGRFTISRDNSKNTVYLQMNSLRPEDTALYYCRSPRYADQWSAYDYWGQGTLVKVSS
Human IL-6
  IC50 hIL-6 TF1 proliferation assay: 1270 pM
Cyno IL-6
  Ratio IC50 cyno IL-6/hIL-6: 2.5 ratio
Human TNF-α
  IC50 hTNF-α Nfkb assay: 171 pM
Cyno TNF-α
  Ratio IC50 cyno TNFα/hTNFα: 3.1 ratio

B5: F027200168 (bispecific antibody)
chain: EVQLVESGGGVVQPGGSLRLSCAASGIIFSINAMGWYRQAPGKQRELVADIFPFGSTEYADSVKGRFTISRDNAKNTVYLQMNSLRPEDTALYYCHSYDPRGDDYWGQGTLVTVSSGGGGSGGGSEVQLVESGGGVVQPGGSLRLSCAASGFTFRSFGMSWVRQAPGKGPEWVSSISGSGSDTLYADSVKGRFTISRDNSKNTLYLQMNSLRPEDTALYYCTIGGSLSRSSQGTLVTVSSGGGGSGGGSEVQLVESGGGVVQPGGSLRLSCAASGRTFSSYVMGWFRQAPGKEREFVSTINWAGSRGYYADSVKGRFTISRDNAKNTVYLQMNSLRPEDTALYYCAASAGGFLVPRVGQGYDYWGQGTLVTVSSGGGGSGGGSEVQLVESGGGVVQPGGSLRLSCTASGFTFSTADMGWFRQAPGKGREFVARISGIDGTTYYDEPVKGRFTISRDNSKNTVYLQMNSLRPEDTALYYCRSPRYADQWSAYDYWGQGTLVKVSS
Human IL-6
  IC50 hIL-6 TF1 proliferation assay: 966 pM
Cyno IL-6
  Ratio IC50 cyno IL-6/hIL-6: 1.6 ratio
Human TNF-α
  IC50 hTNF-α Nfkb assay: 140 pM
Cyno TNF-α
  Ratio IC50 cyno TNFα/hTNFα: 3.3 ratio

B6: F027201028 (bispecific antibody)
chain: DVQLVESGGGVVQPGGSLRLSCAASGRTFSNYAMAWFRQAPGKEREFVAVISYAGGRTYYADSVKGRFTISRDNAKNTVYLQMNSLRPEDTALYYCAAVDSPLIATHPRGYDYWGQGTLVTVSSGGGGSGGGSEVQLVESGGGVVQPGGSLRLSCAASGIIFSINAMGWYRQAPGKQRELVADIFPFGSTEYADSVKGRFTISRDNAKNTVYLQMNSLRPEDTALYYCHSYDPRGDDYWGQGTLVTVSSGGGGSGGGSEVQLVESGGGVVQPGGSLRLSCAASGFTFRSFGMSWVRQAPGKGPEWVSSISGSGSDTLYADSVKGRFTISRDNSKNTLYLQMNSLRPEDTALYYCTIGGSLSRSSQGTLVTVSSGGGGSGGGSEVQLVESGGGVVQPGGSLRLSCTASGFTFSTADMGWFRQAPGKGREFVARISGIDGTTYYDEPVKGRFTISRDNSKNTVYLQMNSLRPEDTALYYCRSPRYADQWSAYDYWGQGTLVKVSS
Human IL-6
  IC50 hIL-6 TF1 proliferation assay: 293 pM
Cyno IL-6
  Ratio IC50 cyno IL-6/hIL-6: 1.1 ratio
Human TNF-α
  IC50 hTNF-α Nfkb assay: 61 pM
Cyno TNF-α
  Ratio IC50 cyno TNFα/hTNFα: 3.1 ratio

B7: F027200215 (bispecific antibody)
chain: EVQLVESGGGVVQPGGSLRLSCAASGIIFSINAMGWYRQAPGKQRELVADIFPFGSTEYADSVKGRFTISRDNAKNTVYLQMNSLRPEDTALYYCHSYDPRGDDYWGQGTLVTVSSGGGGSGGGSDVQLVESGGGVVQPGGSLRLSCAASGRTFSNYAMAWFRQAPGKEREFVAVISYAGGRTYYADSVKGRFTISRDNAKNTVYLQMNSLRPEDTALYYCAAVDSPLIATHPRGYDYWGQGTLVTVSSGGGGSGGGSEVQLVESGGGVVQPGGSLRLSCAASGFTFRSFGMSWVRQAPGKGPEWVSSISGSGSDTLYADSVKGRFTISRDNSKNTLYLQMNSLRPEDTALYYCTIGGSLSRSSQGTLVTVSSGGGGSGGGSEVQLVESGGGVVQPGGSLRLSCTASGFTFSTADMGWFRQAPGKGREFVARISGIDGTTYYDEPVKGRFTISRDNSKNTVYLQMNSLRPEDTALYYCRSPRYADQWSAYDYWGQGTLVKVSS
Human IL-6
  IC50 hIL-6 TF1 proliferation assay: 302 pM
Cyno IL-6
  Ratio IC50 cyno IL-6/hIL-6: 2 ratio
Human TNF-α
  IC50 hTNF-α Nfkb assay: 239 pM
Cyno TNF-α
  Ratio IC50 cyno TNFα/hTNFα: 2.7 ratio

B8: F027201027 (bispecific antibody)
chain: DVQLVESGGGVVQPGGSLRLSCAASGRTFSNYAMAWFRQAPGKEREFVAVISYAGGRTYYADSVKGRFTISRDNAKNTVYLQMNSLRPEDTALYYCAAVDSPLIATHPRGYDYWGQGTLVTVSSGGGGSGGGSEVQLVESGGGVVQPGGSLRLSCAASGFTFRSFGMSWVRQAPGKGPEWVSSISGSGSDTLYADSVKGRFTISRDNSKNTLYLQMNSLRPEDTALYYCTIGGSLSRSSQGTLVTVSSGGGGSGGGSEVQLVESGGGVVQPGGSLRLSCAASGIIFSINAMGWYRQAPGKQRELVADIFPFGSTEYADSVKGRFTISRDNAKNTVYLQMNSLRPEDTALYYCHSYDPRGDDYWGQGTLVTVSSGGGGSGGGSEVQLVESGGGVVQPGGSLRLSCTASGFTFSTADMGWFRQAPGKGREFVARISGIDGTTYYDEPVKGRFTISRDNSKNTVYLQMNSLRPEDTALYYCRSPRYADQWSAYDYWGQGTLVKVSS
Human IL-6
  IC50 hIL-6 TF1 proliferation assay: 317 pM
Cyno IL-6
  Ratio IC50 cyno IL-6/hIL-6: 0.6 ratio
Human TNF-α
  IC50 hTNF-α Nfkb assay: 60.3 pM
Cyno TNF-α
  Ratio IC50 cyno TNFα/hTNFα: 2.5 ratio

B9: F027200989 (bispecific antibody)
chain: EVQLVESGGGVVQPGGSLRLSCTASGFTFSTADMGWFRQAPGKGREFVARISGIDGTTYYDEPVKGRFTISRDNSKNTVYLQMNSLRPEDTALYYCRSPRYADQWSAYDYWGQGTLVKVSSGGGGSGGGSEVQLVESGGGVVQPGGSLRLSCAASGFSLDYYGVGWFRQAPGKEREGVSCISSSEGDTYYADSVKGRFTISRDNAKNTVYLQMNSLRPEDTALYYCATDLSDYGVCSRWPSPYDYWGQGTLVKVSSGGGGSGGGSEVQLVESGGGVVQPGGSLRLSCAASGFTFRSFGMSWVRQAPGKGPEWVSSISGSGSDTLYADSVKGRFTISRDNSKNTLYLQMNSLRPEDTALYYCTIGGSLSRSSQGTLVTVSSGGGGSGGGSEVQLVESGGGVVQPGGSLRLSCAASGFTLAYYAIGWFRQAPGKEREGVSCISGSVGTTYYADSVKGRFTISRDNAKNTVYLQMNSLRPEDTALYYCVRSSWFDCGVQGRDLGNEYDYRGQGTLVTVSS
Human IL-6
  IC50 hIL-6 TF1 proliferation assay: 127 pM
Cyno IL-6
  Ratio IC50 cyno IL-6/hIL-6: 38.3 ratio

B10: F027200154 (bispecific antibody)
chain: EVQLVESGGGVVQPGGSLRLSCTASGFTFSTADMGWFRQAPGKGREFVARISGIDGTTYYDEPVKGRFTISRDNSKNTVYLQMNSLRPEDTALYYCRSPRYADQWSAYDYWGQGTLVKVSSGGGGSGGGSEVQLVESGGGVVQPGGSLRLSCAASGFTFRSFGMSWVRQAPGKGPEWVSSISGSGSDTLYADSVKGRFTISRDNSKNTLYLQMNSLRPEDTALYYCTIGGSLSRSSQGTLVTVSSGGGGSGGGSEVQLVESGGGVVQPGGSLRLSCAASGIIFSINAMGWYRQAPGKQRELVADIFPFGSTEYADSVKGRFTISRDNAKNTVYLQMNSLRPEDTALYYCHSYDPRGDDYWGQGTLVTVSSGGGGSGGGSDVQLVESGGGVVQPGGSLRLSCAASGRTFSNYAMAWFRQAPGKEREFVAVISYAGGRTYYADSVKGRFTISRDNAKNTVYLQMNSLRPEDTALYYCAAVDSPLIATHPRGYDYWGQGTLVTVSS
Human IL-6
  IC50 hIL-6 TF1 proliferation assay: 415 pM
Cyno IL-6
  Ratio IC50 cyno IL-6/hIL-6: 2.1 ratio
Human TNF-α
  IC50 hTNF-α Nfkb assay: 164 pM
Cyno TNF-α
  Ratio IC50 cyno TNFα/hTNFα: 2.8 ratio
